Article PMC2964679, “Characterization of exceptionally thermostable single-stranded DNA-binding proteins from Thermotoga maritima and Thermotoga neapolitana” (BMC Microbiology, 2010)

Legend:
[1] = biological target: T1, TmaSSB (Thermotoga maritima MSB8 (DSM 3106), UniProt Q9WZ73 1-141); assay: EMSA (agarose); 2 or 100 mM NaCl; one tetramer; 20 mM Tris-HCl pH 7.5, 1 mM EDTA, 2 or 100 mM NaCl, 25°C; EMSA 10 pmol oligo (1.5 pmol M13) with 10-200 pmol SSB in 10 µl, 2% agarose in TAE; titration 1 nM SSB with 0-0.8 nM (dT)76; settings: protein: recombinant; tags: none stated (NdeI/HindIII in pET30Ek/LIC, start and stop codon in primers); chain copies: 4; label: 5'-fluorescein (EMSA); single strand
T1 sequence: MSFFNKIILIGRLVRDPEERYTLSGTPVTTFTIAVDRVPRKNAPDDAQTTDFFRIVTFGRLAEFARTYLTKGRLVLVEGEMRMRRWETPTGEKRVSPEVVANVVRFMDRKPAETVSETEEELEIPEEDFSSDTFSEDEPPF

[2] = biological target: T2, TneSSB (Thermotoga neapolitana DSM 4359, UniProt D1M925 1-142); assay: as above; settings: protein: recombinant; tags: none stated (NdeI/HindIII in pET30Ek/LIC, start and stop codon in primers); chain copies: 4; label: 5'-fluorescein (EMSA); single strand
T2 sequence: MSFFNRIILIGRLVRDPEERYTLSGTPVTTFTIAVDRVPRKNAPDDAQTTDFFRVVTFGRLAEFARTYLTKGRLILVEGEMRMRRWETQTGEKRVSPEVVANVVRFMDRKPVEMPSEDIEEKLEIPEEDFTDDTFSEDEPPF

[3] = biological target: the molecule itself; assay: SEC; FPLC analytical gel filtration on a Superdex HR 75 column, calibrated with bovine albumin, ovalbumin, carbon anhydrase and cytochrome C; oligomeric state in solution
[4] = biological target: T1, TmaSSB; assay: EMSA (agarose); 2 or 100 mM NaCl; two tetramers at high protein; 20 mM Tris-HCl pH 7.5, 1 mM EDTA, 2 or 100 mM NaCl, 25°C; EMSA 10 pmol oligo (1.5 pmol M13) with 10-200 pmol SSB in 10 µl, 2% agarose in TAE; titration 1 nM SSB with 0-0.8 nM (dT)76; settings: protein: recombinant; tags: none stated (NdeI/HindIII in pET30Ek/LIC, start and stop codon in primers); chain copies: 4; label: 5'-fluorescein (EMSA); single strand
[5] = biological target: T2, TneSSB; assay: as above; settings: protein: recombinant; tags: none stated (NdeI/HindIII in pET30Ek/LIC, start and stop codon in primers); chain copies: 4; label: 5'-fluorescein (EMSA); single strand
[6] = biological target: T1, TmaSSB; assay: fluorescence titration (Trp quenching); 2 mM NaCl; cooperative affinity omega*K; site size 68 +/- 2 nt; quench 95%; 20 mM Tris-HCl pH 7.5, 1 mM EDTA, 2 or 100 mM NaCl, 25°C; EMSA 10 pmol oligo (1.5 pmol M13) with 10-200 pmol SSB in 10 µl, 2% agarose in TAE; titration 1 nM SSB with 0-0.8 nM (dT)76; settings: protein: recombinant; tags: none stated (NdeI/HindIII in pET30Ek/LIC, start and stop codon in primers); chain copies: 4; single strand
[7] = biological target: T2, TneSSB; assay: as above; settings: protein: recombinant; tags: none stated (NdeI/HindIII in pET30Ek/LIC, start and stop codon in primers); chain copies: 4; single strand

B1: (dT)60 (ssDNA)
DNA: TTTTTTTTTTTTTTTTTTTTTTTTTTTTTTTTTTTTTTTTTTTTTTTTTTTTTTTTTTTT
Question: Which results are given for B1?
Answer: binding result [1]: binds; binding result [2]: binds

B2: single-stranded DNA-binding protein from Thermotoga neapolitana (TneSSB) (natural protein, UniProt D1M925 1-142, looked up)
chain: MSFFNRIILIGRLVRDPEERYTLSGTPVTTFTIAVDRVPRKNAPDDAQTTDFFRVVTFGRLAEFARTYLTKGRLILVEGEMRMRRWETQTGEKRVSPEVVANVVRFMDRKPVEMPSEDIEEKLEIPEEDFTDDTFSEDEPPF
notes: ssb gene amplified with primers from the ATG start codon to the TGA stop codon, cloned between NdeI and HindIII of pET30Ek/LIC (pETSSBTne); No tag is mentioned; cloning between NdeI and HindIII with the gene's own stop codon probably leaves out the vector's tags (surmised); also called T. neapolitana SSB; source: E. coli BL21(DE3)pLysS, purified (heat treatment at 80°C, QAE-cellulose, …)
Question: How did the “stoichiometry N” value [3] turn out when B2 was run?
Answer: The value was 4.

B3: (dT)120 (ssDNA)
DNA: TTTTTTTTTTTTTTTTTTTTTTTTTTTTTTTTTTTTTTTTTTTTTTTTTTTTTTTTTTTTTTTTTTTTTTTTTTTTTTTTTTTTTTTTTTTTTTTTTTTTTTTTTTTTTTTTTTTTTTTT
Question: Which results are given for B3?
Answer: binding result [4]: binds; binding result [5]: binds

B4: (dT)35 (ssDNA)
DNA: TTTTTTTTTTTTTTTTTTTTTTTTTTTTTTTTTTT
Question: Does B4 bind [1]?
Answer: Result: binds

Question: Does B4 bind [2]?
Answer: Result: binds

B5: single-stranded DNA-binding protein from Thermotoga maritima (TmaSSB) (natural protein, UniProt Q9WZ73 1-141, looked up)
chain: MSFFNKIILIGRLVRDPEERYTLSGTPVTTFTIAVDRVPRKNAPDDAQTTDFFRIVTFGRLAEFARTYLTKGRLVLVEGEMRMRRWETPTGEKRVSPEVVANVVRFMDRKPAETVSETEEELEIPEEDFSSDTFSEDEPPF
notes: ssb gene amplified with primers from the ATG start codon to the TGA stop codon, cloned between NdeI and HindIII of pET30Ek/LIC (pETSSBTma); No tag is mentioned; cloning between NdeI and HindIII with the gene's own stop codon probably leaves out the vector's tags (surmised); also called T. maritima SSB; source: E. coli BL21(DE3)pLysS, purified (heat treatment at 80°C, QAE-cellulose, …)
Question: How did the “stoichiometry N” value [3] turn out when B5 was run?
Answer: Its value is 4.

B6: (dT)76 (titration) (ssDNA)
DNA: TTTTTTTTTTTTTTTTTTTTTTTTTTTTTTTTTTTTTTTTTTTTTTTTTTTTTTTTTTTTTTTTTTTTTTTTTTTT
Question: Does B6 bind [6]?
Answer: Result: binds

Question: Does B6 bind [7]?
Answer: Result: binds

B7: (dT)76 (ssDNA)
DNA: TTTTTTTTTTTTTTTTTTTTTTTTTTTTTTTTTTTTTTTTTTTTTTTTTTTTTTTTTTTTTTTTTTTTTTTTTTTT
Question: Does B7 bind [1]?
Answer: Result: binds

Question: Does B7 bind [2]?
Answer: Result: binds
